From US20170306033A1 (Amgen, published 2017) come the findings set out here.

What all share (test): cell-based or functional assay
For assay [1], the target named is T1, human CGRP receptor (human, UniProt Q16602 23-461; O60894 27-148).
Assay [2] concerns the target T2, human PAC1 receptor (human, UniProt P41586 21-468).
T2 sequence: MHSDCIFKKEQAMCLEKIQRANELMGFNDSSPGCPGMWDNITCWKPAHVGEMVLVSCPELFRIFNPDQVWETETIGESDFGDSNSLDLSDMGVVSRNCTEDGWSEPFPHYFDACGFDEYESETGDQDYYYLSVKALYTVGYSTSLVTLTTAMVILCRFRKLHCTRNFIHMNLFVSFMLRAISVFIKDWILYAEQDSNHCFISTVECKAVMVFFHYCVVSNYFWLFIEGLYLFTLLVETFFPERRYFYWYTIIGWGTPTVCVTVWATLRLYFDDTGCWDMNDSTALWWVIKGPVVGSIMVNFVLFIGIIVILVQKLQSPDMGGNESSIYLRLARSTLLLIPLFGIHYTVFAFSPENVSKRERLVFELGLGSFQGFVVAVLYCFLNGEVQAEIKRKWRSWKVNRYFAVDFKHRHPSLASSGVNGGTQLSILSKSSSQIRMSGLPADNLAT

The target in assay [3] is T1, human CGRP receptor. This is another data set of the same source.
In assay [4] the target is T2, human PAC1 receptor. The source holds these as a separate data set.

T1 sequence (Q16602 23-461 limits assumed, chain 1 of 2): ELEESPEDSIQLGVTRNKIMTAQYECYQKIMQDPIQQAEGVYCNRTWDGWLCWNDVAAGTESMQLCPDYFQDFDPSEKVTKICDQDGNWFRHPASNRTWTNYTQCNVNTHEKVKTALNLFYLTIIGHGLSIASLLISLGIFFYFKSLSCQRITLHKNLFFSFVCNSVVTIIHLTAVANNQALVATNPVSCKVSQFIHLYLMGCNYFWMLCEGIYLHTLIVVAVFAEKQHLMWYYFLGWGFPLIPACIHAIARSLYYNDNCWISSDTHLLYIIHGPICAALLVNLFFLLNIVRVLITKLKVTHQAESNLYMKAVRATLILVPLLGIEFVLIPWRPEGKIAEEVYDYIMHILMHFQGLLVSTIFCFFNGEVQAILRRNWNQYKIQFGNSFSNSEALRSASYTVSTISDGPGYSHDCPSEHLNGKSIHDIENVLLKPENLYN
T1 sequence (O60894 27-148 limits assumed, chain 2 of 2): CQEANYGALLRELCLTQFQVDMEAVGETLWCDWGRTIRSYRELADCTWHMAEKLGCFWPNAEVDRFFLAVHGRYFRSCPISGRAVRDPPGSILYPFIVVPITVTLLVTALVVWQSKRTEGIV

B1: iPS:386705 (bispecific antibody, human IgG1, lambda, N297G)
light: QSVLTQPPSVSAAPGQKVTISCSGSSSNIGNNYVSWYQQLPGTAPKLLIYDNNKRPSGIPDRFSGSKSGTSTTLGITGLQTGDEADYYCGTWDSRLSAVVFGGGTKLTVLGQPKANPTVTLFPPSSEELQANKATLVCLISDFYPGAVTVAWKADGSPVKAGVETTKPSKQSNNKYAASSYLSLTPEQWKSHRSYSCQVTHEGSTVEKTVAPTECS
heavy: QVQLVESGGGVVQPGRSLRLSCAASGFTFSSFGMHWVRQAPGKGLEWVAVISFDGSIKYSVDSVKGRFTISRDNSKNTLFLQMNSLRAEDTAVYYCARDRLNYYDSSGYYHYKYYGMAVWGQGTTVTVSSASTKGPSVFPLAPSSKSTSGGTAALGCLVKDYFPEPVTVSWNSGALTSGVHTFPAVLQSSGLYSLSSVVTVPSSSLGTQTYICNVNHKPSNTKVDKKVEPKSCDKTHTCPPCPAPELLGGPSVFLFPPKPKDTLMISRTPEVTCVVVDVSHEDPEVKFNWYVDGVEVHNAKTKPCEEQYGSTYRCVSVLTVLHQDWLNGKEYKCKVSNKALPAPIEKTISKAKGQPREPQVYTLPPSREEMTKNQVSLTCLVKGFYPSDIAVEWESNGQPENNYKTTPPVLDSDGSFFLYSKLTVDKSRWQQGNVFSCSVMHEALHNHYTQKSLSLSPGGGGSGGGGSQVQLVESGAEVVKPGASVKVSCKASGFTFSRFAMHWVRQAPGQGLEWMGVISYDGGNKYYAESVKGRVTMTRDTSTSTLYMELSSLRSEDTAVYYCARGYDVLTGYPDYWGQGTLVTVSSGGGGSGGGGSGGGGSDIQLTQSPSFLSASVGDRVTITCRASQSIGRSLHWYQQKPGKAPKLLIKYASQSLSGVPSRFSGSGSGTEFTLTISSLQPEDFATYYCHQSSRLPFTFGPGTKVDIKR
With B1, in the assay with human CGRP receptor [1], the “Human CGRP Receptor IC50” value is 0.00043 µM. The “Human PAC1 Receptor IC50” value with human PAC1 receptor [2] worked out at 0.605 µM.

B2: iPS:386709 (bispecific antibody, human IgG1, lambda, N297G)
light: QSVLTQPPSVSAAPGQKVTISCSGSSSNIGNNYVSWYQQLPGTAPKLLIYDNNKRPSGIPDRFSGSKSGTSATLGITGLQTGDEADYYCGTWDSRLSAVVFGGGTKLTVLGQPKANPTVTLFPPSSEELQANKATLVCLISDFYPGAVTVAWKADGSPVKAGVETTKPSKQSNNKYAASSYLSLTPEQWKSHRSYSCQVTHEGSTVEKTVAPTECS
heavy: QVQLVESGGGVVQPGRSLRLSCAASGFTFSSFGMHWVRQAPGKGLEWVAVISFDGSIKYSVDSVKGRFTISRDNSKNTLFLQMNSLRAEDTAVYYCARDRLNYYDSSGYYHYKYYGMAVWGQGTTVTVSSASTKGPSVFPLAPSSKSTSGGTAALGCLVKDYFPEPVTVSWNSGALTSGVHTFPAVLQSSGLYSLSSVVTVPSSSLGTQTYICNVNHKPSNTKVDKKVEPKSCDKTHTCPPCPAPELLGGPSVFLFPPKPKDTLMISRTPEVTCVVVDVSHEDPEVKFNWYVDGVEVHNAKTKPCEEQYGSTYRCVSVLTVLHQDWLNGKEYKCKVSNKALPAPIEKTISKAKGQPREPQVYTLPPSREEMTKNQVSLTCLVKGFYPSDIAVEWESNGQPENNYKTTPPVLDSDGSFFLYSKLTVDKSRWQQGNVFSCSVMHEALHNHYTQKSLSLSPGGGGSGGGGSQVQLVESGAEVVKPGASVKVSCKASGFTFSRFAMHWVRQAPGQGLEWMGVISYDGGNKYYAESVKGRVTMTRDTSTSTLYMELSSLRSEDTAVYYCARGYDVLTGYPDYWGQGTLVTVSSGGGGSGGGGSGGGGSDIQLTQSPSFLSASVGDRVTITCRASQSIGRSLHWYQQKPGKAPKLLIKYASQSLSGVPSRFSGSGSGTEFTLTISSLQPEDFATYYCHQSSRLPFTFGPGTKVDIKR
On to B2, for which the “Human CGRP Receptor IC50” value in the assay with human CGRP receptor [1] amounted to 0.00047 µM. Further, the “Human PAC1 Receptor IC50” value with human PAC1 receptor [2] was found to be 0.432 µM.

B3: iPS:386725 (bispecific antibody, human IgG1, lambda, N297G)
light: QSVLTQPPSVSAAPGQKVTISCSGSSSNIGNNYVSWYQQLPGTAPKLLIYDNNKRPSGIPDRFSGSKSGTSTTLGITGLQTGDEADYYCGTWDSRLSAVVFGGGTKLTVLGQPKANPTVTLFPPSSEELQANKATLVCLISDFYPGAVTVAWKADGSPVKAGVETTKPSKQSNNKYAASSYLSLTPEQWKSHRSYSCQVTHEGSTVEKTVAPTECS
heavy: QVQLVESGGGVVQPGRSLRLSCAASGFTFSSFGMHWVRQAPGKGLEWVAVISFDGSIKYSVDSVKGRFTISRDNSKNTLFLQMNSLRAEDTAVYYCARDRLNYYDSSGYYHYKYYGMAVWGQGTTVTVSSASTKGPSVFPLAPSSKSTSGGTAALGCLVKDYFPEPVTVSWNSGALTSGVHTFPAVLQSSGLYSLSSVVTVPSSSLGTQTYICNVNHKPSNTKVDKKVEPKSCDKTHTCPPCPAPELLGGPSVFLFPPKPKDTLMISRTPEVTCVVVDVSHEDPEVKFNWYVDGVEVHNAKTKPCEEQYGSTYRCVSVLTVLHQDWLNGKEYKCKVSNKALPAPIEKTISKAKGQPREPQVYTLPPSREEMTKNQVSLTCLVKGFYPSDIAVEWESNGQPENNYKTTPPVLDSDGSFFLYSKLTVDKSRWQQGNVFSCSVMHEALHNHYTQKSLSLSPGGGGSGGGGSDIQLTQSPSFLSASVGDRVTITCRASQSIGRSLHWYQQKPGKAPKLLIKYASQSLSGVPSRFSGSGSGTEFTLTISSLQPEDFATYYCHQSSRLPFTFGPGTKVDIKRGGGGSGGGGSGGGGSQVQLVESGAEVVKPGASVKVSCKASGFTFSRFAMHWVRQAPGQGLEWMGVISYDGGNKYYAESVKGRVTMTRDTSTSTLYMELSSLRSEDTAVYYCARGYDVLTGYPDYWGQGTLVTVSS
For the molecule B3, the “Human CGRP Receptor IC50” value with human CGRP receptor [1] came out at 0.00042 µM. The “Human PAC1 Receptor IC50” value with human PAC1 receptor [2] was 0.549 µM.

B4: iPS:386713 (bispecific antibody, human IgG1, lambda, N297G)
light: QSVLTQPPSVSAAPGQKVTISCSGSSSNIGNNYVSWYQQLPGTAPKLLIYDNNKRPSGIPDRFSGSKSGTSATLGITGLQTGDEADYYCGTWDSRLSAVVFGGGTKLTVLGQPKANPTVTLFPPSSEELQANKATLVCLISDFYPGAVTVAWKADGSPVKAGVETTKPSKQSNNKYAASSYLSLTPEQWKSHRSYSCQVTHEGSTVEKTVAPTECS
heavy: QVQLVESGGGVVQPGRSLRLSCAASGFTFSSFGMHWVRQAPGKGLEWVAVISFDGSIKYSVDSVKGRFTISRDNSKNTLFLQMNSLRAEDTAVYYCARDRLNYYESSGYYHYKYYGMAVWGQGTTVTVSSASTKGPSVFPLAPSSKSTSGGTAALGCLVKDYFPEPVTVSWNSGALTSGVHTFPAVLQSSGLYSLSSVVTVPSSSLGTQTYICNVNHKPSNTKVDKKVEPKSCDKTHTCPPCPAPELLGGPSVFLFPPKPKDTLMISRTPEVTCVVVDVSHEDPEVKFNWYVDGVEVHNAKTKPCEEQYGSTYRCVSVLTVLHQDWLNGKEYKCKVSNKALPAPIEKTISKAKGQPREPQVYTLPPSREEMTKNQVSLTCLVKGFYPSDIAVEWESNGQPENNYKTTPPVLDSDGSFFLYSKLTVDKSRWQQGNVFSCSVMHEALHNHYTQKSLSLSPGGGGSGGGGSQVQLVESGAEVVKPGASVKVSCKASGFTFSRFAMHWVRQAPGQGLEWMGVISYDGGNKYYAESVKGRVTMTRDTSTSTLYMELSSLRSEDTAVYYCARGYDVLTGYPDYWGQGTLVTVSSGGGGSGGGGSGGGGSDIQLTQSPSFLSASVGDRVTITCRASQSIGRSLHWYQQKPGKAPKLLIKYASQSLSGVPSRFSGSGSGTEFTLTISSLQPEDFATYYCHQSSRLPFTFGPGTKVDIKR
As for B4, the “Human CGRP Receptor IC50” value in the assay with human CGRP receptor [1] turned out to be 0.00037 µM. Further, the “Human PAC1 Receptor IC50” value with human PAC1 receptor [2] worked out at 0.603 µM.

B5: iPS:386711 (bispecific antibody, human IgG1, lambda, N297G)
light: QSVLTQPPSVSAAPGQKVTISCSGSSSNIGNNYVSWYQQLPGTAPKLLIYDNNKRPSGIPDRFSGSKSGTSATLAITGLQTGDEADYYCGTWDSRLSAVVFGGGTKLTVLGQPKANPTVTLFPPSSEELQANKATLVCLISDFYPGAVTVAWKADGSPVKAGVETTKPSKQSNNKYAASSYLSLTPEQWKSHRSYSCQVTHEGSTVEKTVAPTECS
heavy: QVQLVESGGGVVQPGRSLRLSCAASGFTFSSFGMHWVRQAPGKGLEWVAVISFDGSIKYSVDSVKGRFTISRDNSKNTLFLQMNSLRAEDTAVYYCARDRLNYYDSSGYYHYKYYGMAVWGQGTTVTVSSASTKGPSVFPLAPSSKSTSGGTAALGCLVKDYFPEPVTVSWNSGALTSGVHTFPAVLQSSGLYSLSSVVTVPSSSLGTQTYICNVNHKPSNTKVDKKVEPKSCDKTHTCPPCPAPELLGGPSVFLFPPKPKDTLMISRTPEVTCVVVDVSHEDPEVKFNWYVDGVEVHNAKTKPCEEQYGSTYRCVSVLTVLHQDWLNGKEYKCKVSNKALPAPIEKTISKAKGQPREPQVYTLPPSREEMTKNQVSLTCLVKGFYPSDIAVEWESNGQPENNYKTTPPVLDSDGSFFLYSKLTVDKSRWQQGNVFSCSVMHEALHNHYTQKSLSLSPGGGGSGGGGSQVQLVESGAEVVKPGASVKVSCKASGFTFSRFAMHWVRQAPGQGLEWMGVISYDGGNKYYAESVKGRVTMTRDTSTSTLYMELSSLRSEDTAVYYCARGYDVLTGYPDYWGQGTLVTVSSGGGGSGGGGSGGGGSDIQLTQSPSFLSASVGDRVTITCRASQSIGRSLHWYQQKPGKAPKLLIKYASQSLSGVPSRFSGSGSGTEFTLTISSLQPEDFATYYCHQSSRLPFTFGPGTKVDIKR
As for B5, in the assay with human CGRP receptor [1], the “Human CGRP Receptor IC50” value was 0.00053 µM. The “Human PAC1 Receptor IC50” value in the assay with human PAC1 receptor [2] came out at 1.21 µM.

B6: iPS:386707 (bispecific antibody, human IgG1, lambda, N297G)
light: QSVLTQPPSVSAAPGQKVTISCSGSSSNIGNNYVSWYQQLPGTAPKLLIYDNNKRPSGIPDRFSGSKSGTSTTLGITGLQTGDEADYYCGTWDSRLSAVVFGGGTKLTVLGQPKANPTVTLFPPSSEELQANKATLVCLISDFYPGAVTVAWKADGSPVKAGVETTKPSKQSNNKYAASSYLSLTPEQWKSHRSYSCQVTHEGSTVEKTVAPTECS
heavy: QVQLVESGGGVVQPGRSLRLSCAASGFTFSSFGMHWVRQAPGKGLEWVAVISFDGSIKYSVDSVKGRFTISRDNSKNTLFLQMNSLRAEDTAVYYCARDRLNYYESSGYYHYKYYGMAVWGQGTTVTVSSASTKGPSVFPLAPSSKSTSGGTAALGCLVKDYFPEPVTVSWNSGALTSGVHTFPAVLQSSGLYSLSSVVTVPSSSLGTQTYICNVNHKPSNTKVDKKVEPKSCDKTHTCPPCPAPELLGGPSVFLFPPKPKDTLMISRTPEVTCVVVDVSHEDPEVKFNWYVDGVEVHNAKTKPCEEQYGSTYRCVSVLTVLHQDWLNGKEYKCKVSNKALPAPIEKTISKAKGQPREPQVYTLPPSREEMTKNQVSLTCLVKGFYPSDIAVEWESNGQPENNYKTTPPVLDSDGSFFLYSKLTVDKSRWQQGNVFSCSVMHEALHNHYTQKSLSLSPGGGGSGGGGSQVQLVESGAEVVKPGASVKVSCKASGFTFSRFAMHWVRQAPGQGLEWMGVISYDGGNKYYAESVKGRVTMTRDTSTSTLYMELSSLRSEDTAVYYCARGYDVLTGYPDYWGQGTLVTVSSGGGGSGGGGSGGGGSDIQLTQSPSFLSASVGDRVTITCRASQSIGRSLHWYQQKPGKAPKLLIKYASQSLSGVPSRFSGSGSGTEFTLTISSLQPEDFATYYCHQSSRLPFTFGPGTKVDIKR
Consider B6, for which the “Human CGRP Receptor IC50” value in the assay with human CGRP receptor [1] was found to be 0.00047 µM. In addition, the “Human PAC1 Receptor IC50” value in the assay with human PAC1 receptor [2] worked out at 0.74 µM.

B7: iPS:327272 (bispecific antibody, human IgG1, kappa, lambda, N297G)
light 1: DIQMTQSPSSLSASVGDRITITCRASQSISRYLNWYQQKPGKAPKLLIYAASSLQSGIPSRFSGSGSGTDFTLTINSLQPEDFATYFCQQSYSPPFTFGEGTKVDIKRTVAAPSVFIFPPSDEQLKSGTASVVCLLNNFYPREAKVQWKVDNALQSGNSQESVTEQDSKDSTYSLESTLTLSKADYEKHKVYACEVTHQGLSSPVTKSFNRGEC
heavy 1: not shown
light 2: not shown
heavy 2: EVQLVESGGGLVKPGGSLRLSCAASGFTFSNAWMSWVRQAPGKELEWVGRIKSKTDGGTTDYTAPVKGRFTISRDDSKNTLYLQMNSLKAEDTAVYYCTTDRTGYSISWSSYYYYYGMDVWGQGTTVTVSSASTKGPSVFPLAPSSKSTSGGTAALGCLVKDYFPEPVTVSWNSGALTSGVHTFPAVLQSSGLYSLESVVTVPSSSLGTQTYICNVNHKPSNTKVDKKVEPKSCDKTHTCPPCPAPELLGGPSVFLFPPKPKDTLMISRTPEVTCVVVDVSHEDPEVKFNWYVDGVEVHNAKTKPCEEQYGSTYRCVSVLTVLHQDWLNGKEYKCKVSNKALPAPIEKTISKAKGQPREPQVYTLPPSRKEMTKNQVSLTCLVKGFYPSDIAVEWESNGQPENNYKTTPPVLKSDGSFFLYSKLTVDKSRWQQGNVFSCSVMHEALHNHYTQKSLSLSPGK
For the molecule B7, the “% inhibition of human CGRPR” value with human CGRP receptor [3] was 81%. For the same molecule, in the assay with human PAC1 receptor [4], the “% inhibition of human PAC1” value worked out at 62%.

B8: iPS:327274 (bispecific antibody, human IgG1, kappa, lambda, N297G)
light 1: DIQLTQSPSFLSASVGDRVTITCRASQSIGRSLHWYQQKPGKAPKLLIKYASQSLSGVPSRFSGSGSGTEFTLTISSLQPEDFATYYCHQSSRLPFTFGEGTKVDIKRTVAAPSVFIFPPSDEQLKSGTASVVCLLNNFYPREAKVQWKVDNALQSGNSQESVTEQDSKDSTYSLESTLTLSKADYEKHKVYACEVTHQGLSSPVTKSFNRGEC
heavy 1: not shown
light 2: not shown
heavy 2: EVQLVESGGGLVKPGGSLRLSCAASGFTFSNAWMSWVRQAPGKELEWVGRIKSKTDGGTTDYTAPVKGRFTISRDDSKNTLYLQMNSLKAEDTAVYYCTTDRTGYSISWSSYYYYYGMDVWGQGTTVTVSSASTKGPSVFPLAPSSKSTSGGTAALGCLVKDYFPEPVTVSWNSGALTSGVHTFPAVLQSSGLYSLESVVTVPSSSLGTQTYICNVNHKPSNTKVDKKVEPKSCDKTHTCPPCPAPELLGGPSVFLFPPKPKDTLMISRTPEVTCVVVDVSHEDPEVKFNWYVDGVEVHNAKTKPCEEQYGSTYRCVSVLTVLHQDWLNGKEYKCKVSNKALPAPIEKTISKAKGQPREPQVYTLPPSRKEMTKNQVSLTCLVKGFYPSDIAVEWESNGQPENNYKTTPPVLKSDGSFFLYSKLTVDKSRWQQGNVFSCSVMHEALHNHYTQKSLSLSPGK
With B8, the “% inhibition of human CGRPR” value in the assay with human CGRP receptor [3] is 87%. In addition, the “% inhibition of human PAC1” value in the assay with human PAC1 receptor [4] is 22%.

B9: iPS:327273 (bispecific antibody, human IgG1, kappa, lambda, N297G)
light 1: not shown
heavy 1: not shown
light 2: not shown
heavy 2: EVQLVESGGGLVKPGGSLRLSCAASGFTFSNAWMSWVRQAPGKELEWVGRIKSKTDGGTTDYTAPVKGRFTISRDDSKNTLYLQMNSLKAEDTAVYYCTTDRTGYSISWSSYYYYYGMDVWGQGTTVTVSSASTKGPSVFPLAPSSKSTSGGTAALGCLVKDYFPEPVTVSWNSGALTSGVHTFPAVLQSSGLYSLESVVTVPSSSLGTQTYICNVNHKPSNTKVDKKVEPKSCDKTHTCPPCPAPELLGGPSVFLFPPKPKDTLMISRTPEVTCVVVDVSHEDPEVKFNWYVDGVEVHNAKTKPCEEQYGSTYRCVSVLTVLHQDWLNGKEYKCKVSNKALPAPIEKTISKAKGQPREPQVYTLPPSRKEMTKNQVSLTCLVKGFYPSDIAVEWESNGQPENNYKTTPPVLKSDGSFFLYSKLTVDKSRWQQGNVFSCSVMHEALHNHYTQKSLSLSPGK
On to B9, for which the “% inhibition of human CGRPR” value with human CGRP receptor [3] was 81%. For the same molecule, the “% inhibition of human PAC1” value in the assay with human PAC1 receptor [4] amounted to 10%.

B10: iPS:327270 (bispecific antibody, human IgG1, kappa, lambda, N297G)
light 1: EIVLTQSPATLSLSPGERATLSCRASQSVGRSLHWYQQKPGQAPRLLIKYASQSLSGIPARFSGSGSGTDFTLTISSLEPEDFAVYYCHQSSRLPFTFGPGTKVDIKRTVAAPSVFIFPPSDEQLKSGTASVVCLLNNFYPREAKVQWKVDNALQSGNSQESVTEQDSKDSTYSLESTLTLSKADYEKHKVYACEVTHQGLSSPVTKSFNRGEC
heavy 1: not shown
light 2: not shown
heavy 2: not shown
For the molecule B10, the “% inhibition of human CGRPR” value in the assay with human CGRP receptor [3] stood at 71%. In the assay with human PAC1 receptor [4], the “% inhibition of human PAC1” value came out at 82%.

B11: iPS:327275 (bispecific antibody, human IgG1, kappa, lambda, N297G)
light 1: EIVLTQSPATLSLSPGERATLSCRASQSVGRSLHWYQQKPGQAPRLLIKYASQSLSGIPARFSGSGSGTDFTLTISSLEPEDFAVYYCHQSSRLPFTFGEGTKVDIKRTVAAPSVFIFPPSDEQLKSGTASVVCLLNNFYPREAKVQWKVDNALQSGNSQESVTEQDSKDSTYSLESTLTLSKADYEKHKVYACEVTHQGLSSPVTKSFNRGEC
heavy 1: not shown
light 2: not shown
heavy 2: EVQLVESGGGLVKPGGSLRLSCAASGFTFSNAWMSWVRQAPGKELEWVGRIKSKTDGGTTDYTAPVKGRFTISRDDSKNTLYLQMNSLKAEDTAVYYCTTDRTGYSISWSSYYYYYGMDVWGQGTTVTVSSASTKGPSVFPLAPSSKSTSGGTAALGCLVKDYFPEPVTVSWNSGALTSGVHTFPAVLQSSGLYSLESVVTVPSSSLGTQTYICNVNHKPSNTKVDKKVEPKSCDKTHTCPPCPAPELLGGPSVFLFPPKPKDTLMISRTPEVTCVVVDVSHEDPEVKFNWYVDGVEVHNAKTKPCEEQYGSTYRCVSVLTVLHQDWLNGKEYKCKVSNKALPAPIEKTISKAKGQPREPQVYTLPPSRKEMTKNQVSLTCLVKGFYPSDIAVEWESNGQPENNYKTTPPVLKSDGSFFLYSKLTVDKSRWQQGNVFSCSVMHEALHNHYTQKSLSLSPGK
With B11, in the assay with human CGRP receptor [3], the “% inhibition of human CGRPR” value was 85%. In addition, the “% inhibition of human PAC1” value with human PAC1 receptor [4] was determined as 86%.

B12: iPS:327112 (bispecific antibody, human IgG1, kappa, lambda, N297G)
light 1: EIVLTQSPATLSLSPGERATLSCRASQSVGRSLHWYQQKPGQAPRLLIKYASQSLSGIPARFSGSGSGTDFTLTISSLEPEDFAVYYCHQSSRLPFTFGPGTKVDIKRTVAAPSVFIFPPSDEQLKSGTASVVCLLNNFYPREAKVQWKVDNALQSGNSQESVTEQDSKDSTYSLESTLTLSKADYEKHKVYACEVTHQGLSSPVTKSFNRGEC
heavy 1: not shown
light 2: not shown
heavy 2: not shown
In the case of B12, the “% inhibition of human CGRPR” value in the assay with human CGRP receptor [3] is 84%. Further, in the assay with human PAC1 receptor [4], the “% inhibition of human PAC1” value worked out at 104%.

B13: iPS:327269 (bispecific antibody, human IgG1, kappa, lambda, N297G)
light 1: DIQLTQSPSFLSASVGDRVTITCRASQSIGRSLHWYQQKPGKAPKLLIKYASQSLSGVPSRFSGSGSGTEFTLTISSLQPEDFATYYCHQSSRLPFTFGPGTKVDIKRTVAAPSVFIFPPSDEQLKSGTASVVCLLNNFYPREAKVQWKVDNALQSGNSQESVTEQDSKDSTYSLESTLTLSKADYEKHKVYACEVTHQGLSSPVTKSFNRGEC
heavy 1: not shown
light 2: not shown
heavy 2: not shown
As for B13, in the assay with human CGRP receptor [3], the “% inhibition of human CGRPR” value was found to be 79%. For the same molecule, in the assay with human PAC1 receptor [4], the “% inhibition of human PAC1” value is 8%.
